Assay results as given in US20190256588A1 (BEIJING HANMI PHARM, published 2019).

B1: monoclonal antibody secreted by Clone No. 88 (antibody, V domains shown)
VH: DVQVQESGPGLVKPSQSLSLTCTVTGNSITSYYAWNWIRQFPGNKLEWMGYITYSGTTSYNPSLKSRISITRDTSKNQFFLQLNSVTTEDTATYYCAREEYDDIYAVDYWGQGTSVTVSS
VL: IIVMTQTPLSLPVSLGDQASISCRSSQSLVHSNGNTYLHWYLQKPGQSPKLLIYKVYNRFSGVPDRFSGSGSGTDFTLKISRVEAEDLGVYFCSQSTHFPTFGGGTKLEIK
notes: Murine hybridoma antibody tested as culture supernatant; also called murine anti-human IL-17A monoclonal antibody
B2: anti-human IL-17A humanized monoclonal antibody AS15799 (antibody, human IgG1, kappa, V domains shown)
VH: QVQVQESGPGLVKPSETLSLTCTVSGNSITSYYAWNWIRQPPGKGLEWMGYITYSGTTSYNPSLKSRVTISRDTSKNQFSLKLSSVTAADTAVYYCAREEYDDIYAVDYWGQGTLVTVSS
VL: IIVMTQSPLSLPVTLGQPASISCRSSQSLVHSNGNTYLHWYQQRPGQSPRRLIYKVYNRFSGVPDRFSGSGSGTDFTLKISRVEAEDVGVYYCSQSTHFPTFGQGTRLEIKR
B3: anti-human IL-17A humanized monoclonal antibody AS15803 (antibody, human IgG1, kappa, V domains shown)
VH: QVQVQESGPGLVKPSETLSLTCTVSGNSITSYYAWNWIRQPPGKGLEWMGYITYSGTTSYNPSLKSRITISVDTSKNQFSLKLSSVTAADTAVYYCAREEYDDIYAVDYWGQGTLVTVSS
VL: IIVMTQSPLSLPVTLGQPASISCRSSQSLVHSNGNTYLHWYQQRPGQSPRLLIYKVYNRFSGVPDRFSGSGSGTDFTLKISRVEAEDVGVYFCSQSTHFPTFGQGTRLEIKR
B4: anti-human IL-17A humanized monoclonal antibody AS15815 (antibody, human IgG1, kappa, V domains shown)
VH: QVQVQESGPGLVKPSETLSLTCTVSGNSITSYYAWNWIRQPPGKGLEWMGYITYSGTTSYNPSLKSRITISRDTSKNQFSLKLSSVTAADTAVYYCAREEYDDIYAVDYWGQGTLVTVSS
VL: DVVMTQSPLSLPVTLGQPASISCRSSQSLVHSNGNTYLHWFQQRPGQSPRLLIYKVYNRFSGVPDRFSGSGSGTDFTLKISRVEAEDVGVYYCSQSTHFPTFGQGTRLEIKR
B5: anti-human IL-17A humanized monoclonal antibody AS15802 (antibody, human IgG1, kappa, V domains shown)
VH: QVQLQESGPGLVKPSETLSLTCTVSGNSITSYYAWNWIRQPPGKGLEWMGYITYSGTTSYNPSLKSRVTISRDTSKNQFSLKLSSVTAADTAVYYCAREEYDDIYAVDYWGQGTLVTVSS
VL: IIVMTQSPLSLPVTLGQPASISCRSSQSLVHSNGNTYLHWYQQRPGQSPRLLIYKVYNRFSGVPDRFSGSGSGTDFTLKISRVEAEDVGVYFCSQSTHFPTFGQGTRLEIKR
B6: anti-human IL-17A humanized monoclonal antibody AS15820 (antibody, human IgG1, kappa, V domains shown)
VH: QVQLQESGPGLVKPSETLSLTCTVSGNSITSYYAWNWIRQPPGKGLEWMGYITYSGTTSYNPSLKSRVTISVDTSKNQFSLKLSSVTAADTAVYYCAREEYDDIYAVDYWGQGTLVTVSS
VL: DIVMTQSPLSLPVTLGQPASISCRSSQSLVHSNGNTYLHWYQQRPGQSPRLLIYKVYNRFSGVPDRFSGSGSGTDFTLKISRVEAEDVGVYFCSQSTHFPTFGQGTRLEIKR
B7: anti-human IL-17A humanized monoclonal antibody AS15805 (antibody, human IgG1, kappa, V domains shown)
VH: QVQVQESGPGLVKPSETLSLTCTVSGNSITSYYAWNWIRQPPGKGLEWMGYITYSGTTSYNPSLKSRITISRDTSKNQFSLKLSSVTAADTAVYYCAREEYDDIYAVDYWGQGTLVTVSS
VL: DIVMTQSPLSLPVTLGQPASISCRSSQSLVHSNGNTYLHWYQQRPGQSPRRLIYKVYNRFSGVPDRFSGSGSGTDFTLKISRVEAEDVGVYYCSQSTHFPTFGQGTRLEIKR
B8: anti-human IL-17A humanized monoclonal antibody AS15810 (antibody, human IgG1, kappa, V domains shown)
VH: QVQVQESGPGLVKPSETLSLTCTVSGNSITSYYAWNWIRQPPGKGLEWMGYITYSGTTSYNPSLKSRVTISVDTSKNQFSLKLSSVTAADTAVYYCAREEYDDIYAVDYWGQGTLVTVSS
VL: DVVMTQSPLSLPVTLGQPASISCRSSQSLVHSNGNTYLHWYQQRPGQSPRLLIYKVYNRFSGVPDRFSGSGSGTDFTLKISRVEAEDVGVYYCSQSTHFPTFGQGTRLEIKR

Each binder was assayed against T1, recombinant human IL-17A (human, UniProt Q16552 24-155) (assay: ELISA, recombinant human IL-17A coated at 1 µg/mL, HRP anti-mouse IgG, OD450nm).
T1 construct: also called IL-17A antigen
T1 sequence (Q16552 24-155 limits assumed): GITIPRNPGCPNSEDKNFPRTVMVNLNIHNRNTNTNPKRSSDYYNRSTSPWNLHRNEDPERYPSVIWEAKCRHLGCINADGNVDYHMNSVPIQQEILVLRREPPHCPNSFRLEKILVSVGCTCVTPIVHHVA
Description: The plate was washed five times with PBST. […] The plate was washed five times with PBST. […] The plate was washed five times with PBST. 100 μL/well of colorimetric substrate TMB was added and incubated at room temperature for 10 minutes. Color development was terminated by adding 100 μL/well of 1 M H₂SO₄. The absorbance at 450 nm was read on a microplate reader.
Binder B1 has an EC50 of 0.165 nM.

What follows are binders tested against T1, recombinant human IL-17A (assay: ELISA, recombinant human IL-17A coated at 1 µg/mL, HRP anti-human IgG, OD450nm).
Description: The antigen binding activity of humanized anti-human IL-17A monoclonal antibody was determined by ELISA. Recombinant human IL-17A (purchased from Sino Biological Inc.) was coated on a 96-well high-absorbing ELISA plate with a carbonate buffer solution with pH 9.6, the coating concentration was 1 μg/mL, the coating amount was 100 μL per well, and the coating was carried at 4° C. out overnight. The plate was washed five times with PBST and blocked with 300 μL/well of PBST containing 1% BSA and incubated at 25° C. for 1 hour. The plate was washed five times with PBST. […] The plate was washed five times with PBST. Then, horseradish peroxidase-labeled anti-human IgG antibody (Chemicon, Catalog Number AP309P) 1:2000 diluted in PBST containing 1% BSA was added, 100 μL was added to each well, incubated at 25° C. for 1 hour. The plate was washed five times with PBST. 100 μL/well of colorimetric substrate TMB was added and incubated at room temperature for 10 minutes. Color development was terminated by adding 100 μL/well of 1 M H2SO₄. The absorbance at 450 nm was read on a microplate reader.
B2 gave an EC50 of 0.091 nM. Work on B3 yielded an EC50 of 0.087 nM. For B4, the EC50 was 0.077 nM. For B5, the EC50 was 0.088 nM. Work on B6 yielded an EC50 of 0.089 nM. With B7 the EC50 was 0.082 nM. B8 showed an EC50 of 0.083 nM.
